In publication PMC5314765:

T1: Abf2p (mature) (Saccharomyces cerevisiae, UniProt Q02486 27-183)
T1 sequence: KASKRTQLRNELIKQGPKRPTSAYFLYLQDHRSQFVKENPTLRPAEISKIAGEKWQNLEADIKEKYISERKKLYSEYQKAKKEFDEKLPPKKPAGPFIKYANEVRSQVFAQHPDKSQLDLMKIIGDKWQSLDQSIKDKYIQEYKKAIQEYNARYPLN


Experiments:
[1] = biological target: T1, Abf2p (mature); assay: ITC
[2] = biological target: T1, Abf2p (mature); assay: X-ray crystallography

Binder | binding result [1] | binding result [2]
GC_22 (dsDNA) DNA 1: GAAGATATCCGGGTCCCAATAA DNA 2: TTATTGGGACCCGGATATCTTC | binds | 
Af2_22 5-BrU6 (dsDNA, T6 replaced by 5-bromouracil) DNA 1: AATAATAAATTATATAATATAA DNA 2: TTATATTATATAATTTATTATT |  | binds
